Reference: the supplement of paper PMC10567573

B1: SERPINB5 (parent)
chain: FPESETKECPFRVNKVCGAACSSK

Variants of: B1
Assay: protein stability index of a GFP-peptide fusion (GPS, HEK-293T) (PSI 1-6); higher = more stable
Conditions: c terminus: a fixed tail appended
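Note: lentivirally expressed fusions sorted by FACS into six bins by GFP to DsRed ratio, PSI derived from sequencing read proportions per bin multiplied by bin number.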

Protein stability index, by site and new letter:
E5: T 2.11 | V 2.52 | Y 1.87
T6: A 2.68 | C 2.38 | D 2.47 | E 3.47 | F 2.23 | G 2.09 | H 2.56 | I 2.82 | K 2.28 | L 2.1 | M 2.63 | N 2.2 | P 2.91 | Q 2.95 | R 2.63 | S 2.36 | V 3.18 | W 2.65 | Y 2.28
K7: A 2.43 | C 3.21 | D 3.22 | E 2.78 | F 1.89 | G 2.52 | H 3.36 | I 2.55 | L 2.5 | M 2.5 | N 3.05 | P 2.76 | Q 2.86 | R 2.88 | S 2.69 | T 3.1 | V 2.53 | W 1.34 | Y 1.97
E8: A 2.25 | C 2.23 | D 2.16 | F 1.97 | G 1.9 | H 2.14 | I 2.13 | K 3.04 | L 2.33 | M 1.86 | N 2.17 | P 2.29 | Q 1.98 | R 1.82 | S 2.14 | T 2.6 | V 2.59 | W 1.66 | Y 1.93
C9: A 4.49 | D 3.87 | E 4.84 | F 1.81 | G 2.82 | H 1.83 | I 4.39 | K 4.37 | L 3.6 | M 3.81 | N 3 | P 4.51 | Q 4.03 | R 4.34 | S 2.15 | T 2.64 | V 4.4 | W 2.07 | Y 2.92
P10: A 2.95 | C 3.05 | D 4.78 | E 4.31 | F 2.55 | G 4.1 | H 3.62 | I 2.53 | K 3.75 | L 2.14 | M 3.41 | N 4.02 | Q 3.58 | R 3.63 | S 3.96 | T 3.67 | V 3.05 | Y 2.3
F11: A 4.43 | C 3.71 | D 5.06 | E 4.43 | G 2.87 | H 5.17 | I 4.74 | K 5.11 | L 4.31 | M 4.48 | N 5.12 | P 4.96 | Q 5.04 | R 4.67 | S 5.28 | T 4.45 | V 4.25 | W 2.16 | Y 2.99
R12: A 3.76 | C 4.62 | D 4.86 | E 4.59 | F 3.56 | G 4.11 | H 3.83 | I 2.57 | K 3.57 | L 2.68 | M 2.86 | N 3.66 | P 4.75 | Q 3.36 | S 3.95 | T 3.84 | V 2.43 | W 2.87 | Y 3.43
V13: A 3.14 | C 3.09 | D 4.31 | E 4.17 | F 2.59 | G 3.81 | H 4.26 | I 2.6 | K 3.93 | L 3.19 | M 3.1 | N 3.71 | P 3.02 | Q 4.03 | R 3.59 | S 3.66 | T 3.54 | W 2.19 | Y 2.03
N14: A 2.2 | C 2.69 | D 3.17 | E 3.29 | F 2.15 | G 2.02 | H 3.27 | I 1.96 | K 2.07 | L 2.35 | M 2.98 | P 2.47 | Q 3.29
